In publication PMC10140047:

Target: T1, TwinStrep-BICD2 WT (mouse), Q921C5
T1 chain: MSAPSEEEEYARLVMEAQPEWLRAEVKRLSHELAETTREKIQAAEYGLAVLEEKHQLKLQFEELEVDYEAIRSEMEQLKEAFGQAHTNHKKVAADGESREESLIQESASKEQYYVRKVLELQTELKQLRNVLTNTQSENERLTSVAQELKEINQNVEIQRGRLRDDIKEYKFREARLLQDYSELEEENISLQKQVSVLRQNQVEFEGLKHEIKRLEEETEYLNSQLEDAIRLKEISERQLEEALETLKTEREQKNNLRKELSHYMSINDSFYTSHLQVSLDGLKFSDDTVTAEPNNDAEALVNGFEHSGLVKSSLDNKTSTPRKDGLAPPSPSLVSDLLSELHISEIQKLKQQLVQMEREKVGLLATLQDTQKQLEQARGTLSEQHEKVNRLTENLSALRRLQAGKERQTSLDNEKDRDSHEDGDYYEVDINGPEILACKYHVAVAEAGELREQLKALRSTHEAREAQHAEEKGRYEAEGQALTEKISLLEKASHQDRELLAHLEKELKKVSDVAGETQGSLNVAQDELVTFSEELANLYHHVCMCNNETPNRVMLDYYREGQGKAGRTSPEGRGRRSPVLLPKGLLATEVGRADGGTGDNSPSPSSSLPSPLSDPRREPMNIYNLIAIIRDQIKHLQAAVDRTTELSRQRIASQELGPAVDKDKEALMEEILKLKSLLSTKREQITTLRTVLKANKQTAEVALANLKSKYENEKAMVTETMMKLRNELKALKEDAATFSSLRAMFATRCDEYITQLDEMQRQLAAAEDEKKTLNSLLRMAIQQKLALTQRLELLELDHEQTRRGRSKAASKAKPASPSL
Experiment: SEC-MALS; purified TwinStrep-BICD2 WT and S102D; predicted MW of ~190 kDa
Conditions: remark: other sources report otherwise

B1: TwinStrep-BICD2 WT, Q921C5 1-820 (natural protein)
chain: T1 chain
  stoichiometry N: 2
